Laboratory results reported in paper PMC12316734, “Lipase Activation by Poly(Methyl Methacrylate) in Dispersed Solution: Mechanistic Insights by Fluorescence Spectroscopy” (Applied Biochemistry and Biotechnology, 2025).

Target: the molecule itself
Assay: fluorescence correlation spectroscopy; 15 nM Atto 488-labelled TLL plus non-labelled TLL to 500 nM, no PMMA, broad-range buffer (succinic acid/NaH2PO4/glycine), pH 7 and pH 5; mean diffusion constant compared with the value predicted for the monomer (Hullrad)

B1: Thermomyces lanuginosus lipase (enzyme, UniProt O59952 23-291, looked up)
chain: EVSQDLFNQFNLFAQYSAAAYCGKNNDAPAGTNITCTGNACPEVEKADATFLYSFEDSGVGDVTGFLALDNTNKLIVLSFRGSRSIENWIGNLNFDLKEINDICSGCRGHDGFTSSWRSVADTLRQKVEDAVREHPDYRVVFTGHSLGGALATVAGADLRGNGYDIDVFSYGAPRVGNRAFAEFLTVQTGGTLYRITHTNDIVPRLPPREFGYSHSSPEYWIKSGTLVPVTRNDIVKIEGIDATGGNNQPNIPDIPAHLWYFGLIGTCL
modifications: Atto 488 coupled unspecifically to amines via NHS-ester (15 nM labelled protein, non-labelled enzyme added to 500 nM)
notes: Thermomyces lanuginosus lipase (TLL), commercial enzyme preparation; The PDB entries were used only for computational surface analysis; also called TLL; Atto 488-TLL; source: gift from ASA Spezialenzyme GmbH (Wolfenbüttel, Germany), desalted (HiTrap Desalting) before use
  stoichiometry N: 2
